Assay results: the supplement of paper PMC11502859

Tested on: HEK293T
Test: median enrichment of reporter reads in eGFP-reduced (low/intermediate) vs eGFP-high sorted cells (eGFP-extension fusion abundance) (ratio); higher = stronger loss of eGFP-fusion protein abundance (more destabilising extension)
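Note: lentiviral eGFP-IRES-mCherry reporter pool sorted by FACS 96 h post-transduction, gated on mCherry-high cells, Illumina read counts normalized per million, median across four biological replicates.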

| Substance | median enrichment |
| --- | --- |
| LNLKKSFQ [CCDC160] | 1.05 |
| CEQ [PRF1] | 12.2 |
| RENQHP [CRYBG3] | 0.514 |
| LRAGEPHILTAPGLYPGHSRDRLVVEPGGAKKASCGPRTAAVRLPMSQAVCVVTAPLSVHLQQRQRRRLPPGRFSLFIC [ZMYND19] | 6.85 |
| WPSPPCQGQDPDFSKCGSHSAGTCRDMRGGCCHGRLPLHTRHWGSDPPGRWPFSPSS [CYSRT1] | 2.04 |
| RWCWGLGRGGELGCQNSMDMFLWMEGRAFVTFCTYSFCGCFDKGMARELVSIISFILFWL [BCO1] | 16 |
| SCVKSFSVFSTFIKTQDNSYWREILQM [ZNF708] | 11.8 |
| GSYISPSIRGHTQESNFALLQALVEAA [ZNF337] | 9.72 |
| QSMF [TMEM196] | 0.507 |
| QGNWALPHVFLLPPRDSNDMYSHLGHACLPNTIWSWTTFDTNQSYWTRPLEDLKYTSHAVVYLGCDSLSNAALGKDESDLQGE [APOBEC2] | 6.1 |
| WGAPQEGPVDLRRLHKKLMDHWSVPMGSIISSTLKMSKVCSFQTASPGSLGNAGKSKRISLALIT [ACSM5] | 17.8 |
| SRNMSSQGIETALNSLTSRL [PCLO] | 3.6 |
| SKQKHQHTSLDNSIWSTRLSYRFNFFCILRTL [HNRNPH3] | 6.48 |
| RVTFQVVPWAPGSGLWPTFSTFRPICTGCWQGGGRELTGTEGLGTQPFSTCAYRLDLSLLQKPALLCWLAGPVAAG [EIF6] | 6.39 |
| SDVQDL [ZMPSTE24] | 0.181 |
| RAPVGKGGGLRGRGWMPRAPKPPFPFVSKGVRSELRKRASECVSLEGLGALWCYHLETCLMPPCLPMEDRLQELGPCGNLACF [MTA2] | 5.52 |
| YSQILALLSG [CHRNA9] | 12.2 |
| SGIRLPGNSGTVALADHLQHPAS [SLC2A10] | 0.633 |
| QPETGGSPPARSGASSCQSSWCYPLNPSAATATVGLRVSEQERKDKLFVVPTMLRFGNPGVFPGGLRKQSL [TNFAIP3] | 4.84 |
| YICLASPPSVFSTQRRREPAVPCRREEGLLDPRLSPSALRTPCPDSLLMVGPLCSSLPVGSLSSLTWIRFGFSTSLPQRKDYS [KRT13] | 6.15 |
| SGSRRSRRDPHGSIALASDLAWRYFCRELGSRNASDLSALHIVGLKSGWELAKSLFRLFN [MRPL34] | 8.92 |
| RNRGLNVFRVRMP [PARD6B] | 4.57 |
| WVKEEKPSTP [TAS2R19] | 0.336 |
| YQAQLQKDLTCAHKILL [LCN6] | 7.65 |
| SAPYWPAGPPPPAAGQLPNGPFQGLTLHPFSVDFLARAPSGGITDLMTTLALLPCRVQVLSPHFHLPAPRGPFPFMGLPPSDA [PCDH1] | 3.42 |
| QLGAHIKCFILHTWTLKPGCACILKQQSSHSFRQMFSVSEENMFSEEKTFRQMFSEEKKGKLGVGRC [PRAME] | 9.08 |

| Substance | median enrichment |
| --- | --- |
| RWTSLFPGPRTLQEMETVQRAVWSHNLNRFSGAPSLLPSLQ [RPRD1A] | 6.53 |
| RCPCHLPSVHPESSQ [PPFIBP2] | 0.445 |
| KGPPRAQGPGAPRGWGQTKTRQRGERRERAGAGPLGAELGASGGRRLMFYKL [IER5L] | 40.8 |
| WPDLSERHGYHRMKVEL [CUTC] | 12 |
| GLKFCKVLRGPEHVSATRGSGQHCVLRLVSYLRLPSICVQRPRLQPSQHSAGSHAPCPHPGQQTPARVCAPSDCTPALITHRH [SLC29A4] | 5.42 |
| YLRTLPFFPLSSLPLPFLPIYPFPSSKSTQGEENKMTTQDLVAKILHSKSSFV [FGF12] | 9.45 |
| YGPGTGGAHPATEHVRVLVLFRSPLSRCNFCSSSPTPAPSFMLLFRTQPPCPVLVVSR [STMN3] | 7.57 |
| VVVVVVVV [Val08] | 10.5 |
| EEEE [Glu04] | 8.36 |
| QLVKTMGVVLTQPPIPQGASGQSFWHCSRIPPSWCVWRVGKAGRDINLEENT [ARHGEF25] | 6.94 |
| QTA [FMR1] | 0.337 |
| KTIQKRNQFFPQSIQCLEY [HEATR3] | 5.13 |
| YVDLRQTLGGVKESHRYPKE [MAGEH1] | 3.34 |
| SLCC [POLQ] | 0.62 |
| QEPHALKKTWEDMVAWNCHPRIPC [ZIM3] | 3.53 |
| QGLEGQEVGVRSPYSACCPGCAAQLDSASQHLPPRSFLLFIPIFTPKTSLSLFTPPKPLSHAGPLKPQLPTILREHPLPSLPF [GSTM2] | 5.62 |
| RVSSPTRSLARPLALQLLFGGGIPHSFLGTHSHAHCRSINSNPHFRPKIMRPHLVSTFPRPCSKPNPFLPSGSQNLLSPTATT [RNF39] | 6.99 |
| IYPSPGSPGHSVLSKTRMWYQLWKRKVSCQQYLLPSRQPSQVRHLLRSHREPGVCTSWKSCHQPGHSSHRIDQRACFLIQENE [SPSB4] | 7.01 |
| ESVAFLLFPH [NKAIN2] | 6.56 |
| RGTLRSPKTSSCWGPHEGTSTLWGVARKRQALQLGDPIWKRDSDLPTSSSSFSTKAPVDSREVVKIFFSPIFLPASGDTAAVT [PGPEP1] | 2.83 |
| WRPPHFRFGFRKTFSEKKLFF [TFDP1] | 5.19 |
| QESSPPAHQGQDTWLGADAGPDVAEDSRAGRARGGGGGGGGGRRRRSRPLPTTSRRRRGARAEEPGTGDS [C6orf223] | 0.3 |
| CSPMPAHL [CDNF] | 7.02 |
| REAWPR [ELOVL1] | 0.427 |
| CPDHGQGLPPCAPQLSPSKCVLRASLFFTAAATFPHCLRCREGQVPASTGISDKPRAQPTRGSSLHAHTGYGDGGLQVSSARG [SSNA1] | 7.23 |
| CGCAPAGSSKDRPARSPSNPTFFWKGGVLQGQAGASSRLLGANPSMYIAFLSCLRAADSQRCARGERCAVGSRA [TNFRSF1A] | 13.5 |

| Substance | median enrichment |
| --- | --- |
| LAPLGLEFATGRILQRQVVPGPLLHPFSRRPCQRLHPVVNLVWRQRLRGWTSIVGQGLTLQGFCSWLWTPENPLLPSPNTRFL [FAM110A] | 6.38 |
| WACYFHGVCQ [OR5D18] | 4.25 |
| SKCVLRASLFFTAAATFPHCLRCREGQVPASTGISDKPRAQPTRGSSLHAHTGYGDGGLQVSSARGLSLWHPHSCPAREALVV [SSNA1] | 5.95 |
| QRPLPGPSPAPRAPRPGPGARQTPACAPAERRLETGATASRVQQHSRHGSGRDSAWPRGTFPGQGPGGNWHGLVPLLCCILIP [ANKRD13B] | 7.68 |
| LAAWDRSTNYTGSGIRVSKMSYECRSEGHMLTLESVER [NLRP7] | 13.6 |
| GNHGARAARCVQRRAHRHHPHPDQPAYRGARAPLPEAAQGHQR [UCKL1] | 0.821 |
| RQRRD [PVR] | 0.306 |
| SECTLQSWWFLRVGLDRVAAC [BPHL] | 7.67 |
| EFFLELKHPRMPLHVFHSPHLQTSLLFLTRPESKLPSLGNSGEGVSCTTYHTPSHPVSDFGMDSGKLGPSLNRVMYLNVCYFQ [HSPA1L] | 5.31 |
| GGCRRRPSWCRQAGHRDPGPAQETAFFSRYNRRQKKRVPPLPNRSFWQGVPNAKTQRCGWHLLPHSFKIVKKC [FOXF1] | 9.48 |
| RPGAQPCAAEDSRDWRRPRPATAGARGHLPGLLTLSPHWEWAPRGRASAVAASAPGRAGPPRGPVLVFCRRTQPPPIPDSSLG [TMUB1] | 6.53 |
| RKPLNVRNVGRPFNIITNFMDIIDFIFVRTLMNVKDVGNALPVVETLEYIREFILVRNHINVKNVGKPLVIVQTC [ZNF780B] | 7.09 |
| TMEPPGGRQKKR [Degron FEM1C] | 0.496 |
| CGALRPS [PNKD] | 0.539 |
| LEIEKKKRISTQVFFFRNEDKI [ZNF24] | 2.65 |
| LARAPSGGITDLMTTLALLPCRVQVLSPHFHLPAPRGPFPFMGLPPSDAQEGSSAMTGLLPLTSREHPLDLGRWWSQGWAAYF [PCDH1] | 6.44 |
| IIIIIIIII [Ile09] | 9.46 |
| SMLLPGLQKLHGHSSVIGLSLITKITAQDHLPEKHPLA [PLCB1] | 19.1 |
| QHLQEEEEKEGTPDWI [GPR158] | 1.29 |
| QEMWSLRCLKSTTMPGIEEDYYLKQWALVFGASDMPSILPSWN [G6PC] | 10.6 |
| QSCSIHIGLMD [ZCCHC10] | 0.408 |
| WPRLSTCHLLACLTLRTHLPGPSLFHPREAELPKTQVFSYLFPILRGFP [ZDHHC18] | 17.8 |
| RRRRRRGRAAGGTAQATQGRPLRPGGQGGRPASGDRLPPGLWQDVPSEGYFEEPPGPGDREAPVSSMNALPRTQARASGVHSE [MSANTD1] | 0.682 |
| LPNFTSSGESLTLNQRPSTALAPQTSP [ABCB5] | 0.355 |
| YRRIYVLFKQEKVTLPMLSPLHNI [CDH10] | 8.74 |
| WSSSSNSICKEHFSLKTCIWIIIITTF [CCDC148] | 3.42 |

| Substance | median enrichment |
| --- | --- |
| YMQRPRRAALTTRFIF [EWSR1] | 6.81 |
| KKKKKQQVMELHILVTQWTIIGSHWKSGKNPWRLSFSDILPNALLSRIFVSFCLIFWGVFVVVGLFFVFFF [PPP1R12A] | 4.71 |
| LTATRMDTALAVPTLDRVSALLHTGGGAGAYSCSIKHPSYAPPQ [ACTL7A] | 9.25 |
| RKSNASRLSEA [VHLL] | 0.269 |
| QSSLSR [SCAF8] | 1.11 |
| SYLQCPCCVALQMRPLQTRPA [WDCP] | 8.46 |
| RMNTCQE [OR52N4] | 0.48 |
| RASSFS [KLHL10] | 0.821 |
| SLLLVPK [RBKS] | 1.87 |
| LANAS [NXF1] | 0.411 |
| SFQNWMDFYFFQ [CCDC169] | 19.6 |
| YGFSPFGDHLSVSPTHYPICPPPQLGPRGPTLHFWGVTDFVHGFKVYFYGLVIAEFLFWGEGKGASPLLLALRPRRLLCAANC [TSPYL2] | 5.92 |
| IPVPEHQIPRQLMRLAQCVTEAPGSQQSRAYSAHQAEQATGRDDASGQGSAGDRDYRPAVSGPLQRLPTQGLVGVKHDDNTYT [CCDC137] | 0.864 |
| LHGFQASGSLTISLLRVSPGNCLTKSQAQGLLSIYLISERLF [LIMCH1] | 33.9 |
| KHGGFGS [AKAIN1] | 0.558 |
| LLLPGGEQPTRCRFALRGASYIGTLLSLQNDDTNANDQM [TFB1M] | 5.57 |
| LAPRAEKMLGTHPAPPSTNTSGWGRGRTL [VPS26B] | 1.3 |
| YKL [OR6C2] | 0.678 |
| SVRLDWGGWHCVGGQLSI [ACTL10] | 13.7 |
| CCCCCCCCCC [Cys10] | 9.58 |
| WCSYLFFSSLS [LAMTOR5] | 13.3 |
| WGRRCGAVNFRPQRSQSMRGGGGGRGRRAKGGGAGASNPRQ [KISS1] | 15.8 |
| YEKHFGILSIMILCYRHRECCIQ [FASLG] | 3.75 |
| YPDPHRCCDLFVLSTVE [FGF14] | 9.33 |
